Values of other authors, collected in paper PMC9381557.

Target: RAGE V domain (Homo sapiens) (UniProt Q15109)
Chain of UniProt Q15109 (Q15109 23-116): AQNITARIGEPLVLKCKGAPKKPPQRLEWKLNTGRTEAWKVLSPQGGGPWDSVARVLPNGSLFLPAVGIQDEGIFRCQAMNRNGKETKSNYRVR

Question: With S100P (from UniProt P25815) as the substance, how does the Kd read?
Answer: 6.8 µM
